These results are taken from publication PMC9482650, “Quantitative fragmentomics allow affinity mapping of interactomes” (Nature Communications, 2022).

Common to all, as to test: holdup assay
What all share (parameters): key: below the threshold = too weak to quantify, mostly under pKd 3.1 to 4
Settings in all cases: plain residues with an end cap or a label only (N-terminal biotin on a linker: ado-ado)

Test [1] addresses T1, DVL3, Q92997.
T1 sequence (Q92997 244-331, limits assumed, looked up): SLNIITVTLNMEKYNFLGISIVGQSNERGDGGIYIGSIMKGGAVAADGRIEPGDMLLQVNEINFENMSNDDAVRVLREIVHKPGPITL

Test [2] deals with GRID2IP_2, A4D2P6.
Chain of GRID2IP_2, A4D2P6 (A4D2P6 272-370): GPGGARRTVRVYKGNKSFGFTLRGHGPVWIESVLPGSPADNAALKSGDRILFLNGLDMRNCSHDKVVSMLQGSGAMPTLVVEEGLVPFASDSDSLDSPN
For test [3], the target named is T2, MPDZ_10, O75970.
T2 sequence (O75970 1624-1722, limits assumed, looked up): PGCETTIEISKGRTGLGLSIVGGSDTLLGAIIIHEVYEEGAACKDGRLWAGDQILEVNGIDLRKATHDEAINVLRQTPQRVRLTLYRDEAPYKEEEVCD

In test [4] the target is LNX1_2, Q8TBB1.
Chain of LNX1_2, Q8TBB1 (Q8TBB1 371-470): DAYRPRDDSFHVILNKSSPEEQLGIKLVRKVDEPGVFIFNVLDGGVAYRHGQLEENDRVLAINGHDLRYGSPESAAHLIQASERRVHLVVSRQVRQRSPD
The target in test [5] is T3, LIN7C, Q9NUP9.
T3 sequence (Q9NUP9 88-185, limits assumed, looked up): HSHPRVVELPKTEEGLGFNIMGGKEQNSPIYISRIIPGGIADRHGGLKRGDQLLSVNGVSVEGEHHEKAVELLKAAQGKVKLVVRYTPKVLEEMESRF

The target of test [6] is T4, MPDZ_5, O75970.
T4 sequence (O75970 695-796, limits assumed, looked up): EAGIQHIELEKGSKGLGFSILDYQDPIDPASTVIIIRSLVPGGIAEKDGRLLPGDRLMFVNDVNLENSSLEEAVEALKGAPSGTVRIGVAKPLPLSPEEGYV

Test [7] concerns the target PICK1, Q9NRD5.
Test [8] has as its target T5, APBA1_1, Q02410.
T5 sequence (Q02410 651-752, limits assumed, looked up): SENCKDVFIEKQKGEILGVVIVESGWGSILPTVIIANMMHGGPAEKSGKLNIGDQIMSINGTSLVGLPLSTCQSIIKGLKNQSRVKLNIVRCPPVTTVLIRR

Test [9] addresses FRMPD2_3, Q68DX3.
Test [10] deals with T6, GRIP1_4, Q9Y3R0.
T6 sequence (Q9Y3R0 467-571, limits assumed, looked up): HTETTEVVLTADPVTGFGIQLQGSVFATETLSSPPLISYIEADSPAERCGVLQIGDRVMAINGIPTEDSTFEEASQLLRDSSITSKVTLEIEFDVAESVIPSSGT

Test [11] deals with GRASP, Q7Z6J2.
Chain of GRASP, Q7Z6J2 (Q7Z6J2 96-193): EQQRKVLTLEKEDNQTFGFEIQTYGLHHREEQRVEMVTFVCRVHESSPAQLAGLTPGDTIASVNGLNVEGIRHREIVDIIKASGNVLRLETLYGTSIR
For test [12], the target named is FRMPD2_2, Q68DX3.
Chain of FRMPD2_2, Q68DX3 (Q68DX3 944-1038): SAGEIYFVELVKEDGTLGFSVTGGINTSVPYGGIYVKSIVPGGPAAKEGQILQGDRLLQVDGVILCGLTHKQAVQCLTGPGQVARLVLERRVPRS
Test [13] concerns the target T7, TIAM2, Q8IVF5.
T7 sequence (Q8IVF5 885-986, limits assumed, looked up): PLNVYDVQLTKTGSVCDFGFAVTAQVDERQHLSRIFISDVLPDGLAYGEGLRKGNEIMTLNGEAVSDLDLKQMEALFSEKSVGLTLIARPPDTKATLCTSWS

Test [14] deals with MAGI1_2, Q96QZ7.
Chain of MAGI1_2, Q96QZ7 (Q96QZ7 456-580): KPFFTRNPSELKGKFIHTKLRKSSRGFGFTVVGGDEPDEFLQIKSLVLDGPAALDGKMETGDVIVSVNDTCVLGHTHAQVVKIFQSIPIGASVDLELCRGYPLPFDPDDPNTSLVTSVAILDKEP
Test [15] has as its target T8, SNTB1, Q13884.
T8 sequence (Q13884 107-205, limits assumed, looked up): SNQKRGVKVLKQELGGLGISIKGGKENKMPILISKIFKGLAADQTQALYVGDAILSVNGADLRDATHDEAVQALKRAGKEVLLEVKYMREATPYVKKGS

Test [16] deals with SNX27, Q96L92.
For test [17], the target named is T9, TX1BP3, O14907.
T9 sequence (O14907 10-122, limits assumed, looked up): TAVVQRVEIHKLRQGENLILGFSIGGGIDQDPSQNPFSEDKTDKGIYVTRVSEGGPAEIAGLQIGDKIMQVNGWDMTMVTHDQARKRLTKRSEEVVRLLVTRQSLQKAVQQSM

For test [18], the target named is T10, ARHGEF11, O15085.
T10 sequence (O15085 42-136, limits assumed, looked up): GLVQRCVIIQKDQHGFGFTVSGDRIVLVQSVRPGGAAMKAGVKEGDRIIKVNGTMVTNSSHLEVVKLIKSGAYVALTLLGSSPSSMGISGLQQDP

The target of test [19] is T11, PDZD2_2, O15018.
T11 sequence (O15018 329-429, limits assumed, looked up): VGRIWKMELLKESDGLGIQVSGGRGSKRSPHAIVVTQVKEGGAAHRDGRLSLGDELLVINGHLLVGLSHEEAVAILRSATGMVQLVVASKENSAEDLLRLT

Test [20] addresses T12, LIN7B, Q9HAP6.
T12 sequence (Q9HAP6 88-185, limits assumed, looked up): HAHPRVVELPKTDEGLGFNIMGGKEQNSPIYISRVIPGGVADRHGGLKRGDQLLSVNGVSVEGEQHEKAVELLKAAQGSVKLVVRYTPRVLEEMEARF

For test [21], the target named is LAP2, Q96RT1.
Chain of LAP2, Q96RT1 (Q96RT1 other isoform, or with tags, fused parts or gaps): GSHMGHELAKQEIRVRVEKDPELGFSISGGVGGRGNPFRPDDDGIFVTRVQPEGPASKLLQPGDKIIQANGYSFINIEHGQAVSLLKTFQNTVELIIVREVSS
The target of test [22] is Inadl_6, Q8NI35.
Chain of Inadl_6, Q8NI35 (Q8NI35 1058-1167): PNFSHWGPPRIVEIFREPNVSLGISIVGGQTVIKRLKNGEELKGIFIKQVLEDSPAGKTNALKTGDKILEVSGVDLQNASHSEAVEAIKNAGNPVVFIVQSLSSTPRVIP
The target in test [23] is T13, DLG3_2, Q92796.
T13 sequence (Q92796 221-321, limits assumed, looked up): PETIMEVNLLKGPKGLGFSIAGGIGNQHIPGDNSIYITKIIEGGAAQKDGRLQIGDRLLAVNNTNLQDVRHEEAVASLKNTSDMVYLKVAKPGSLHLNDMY

Usually pKd stands for the Kd on a negative log10 scale, so that one unit is a factor of ten.

Chain of PICK1, Q9NRD5 (Q9NRD5 17-115): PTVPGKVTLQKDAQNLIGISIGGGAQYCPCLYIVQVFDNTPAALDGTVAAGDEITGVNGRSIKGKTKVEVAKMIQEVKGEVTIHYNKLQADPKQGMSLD
Chain of FRMPD2_3, Q68DX3 (Q68DX3 1073-1166): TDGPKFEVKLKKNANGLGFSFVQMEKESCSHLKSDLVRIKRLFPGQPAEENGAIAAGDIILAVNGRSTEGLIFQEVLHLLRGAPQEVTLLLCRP

B1: FCHSD2, O94868 (peptide)
chain: KIEDVEITLV
As for B1, the pKd result was “below the threshold” in test [1]; 4.63 in [2]; 3.49 in test [3]; 4.55 in test [4]; 4.11 in test [5]; “below the threshold” in test [6]. Also, the pKd entry in [7] is “below the threshold”; in test [8], “below the threshold”; in test [9], “below the threshold”; in test [10], “below the threshold”; in test [11], 5.5; in test [12], 4.76. The pKd entry in [13] was “below the threshold”; in [14], “below the threshold”; in [15], 3.95; in test [16], 5.01; in [17], 3.98; in test [18], 4.42. Further, the negative logarithm of the Kd (pKd) was 4.64 in test [19]; “below the threshold” in [20]; 3.84 in [21]; 4.23 in [22]; 3.53 in test [23].

B2: TRPM1, Q7Z4N2 (peptide)
chain: KEKASTETEC
Take B2: the pKd entry in [1] was “below the threshold”; in [2] it was “below the threshold”; in test [3], “below the threshold”; in test [4], “below the threshold”; in test [5], 3.93; in test [6], “below the threshold”. Further, the pKd entry in test [7], in [8], in test [9], in test [10], in [11] and in test [12] was “below the threshold” throughout. Besides, the pKd entry was “below the threshold” in test [13]; “below the threshold” in test [14]; 4.17 in [15]; 4.53 in [16]; “below the threshold” in test [17]; “below the threshold” in [18]. Besides, the pKd entry in test [19] is “below the threshold”; in [20], 3.77; in test [21], 3.67; in [22], “below the threshold”; in test [23], 3.92.

B3: POLR1D, P0DPB6 (peptide)
chain: QKASRNESTF
For the molecule B3, the pKd result in test [1], in test [2], in [3], in test [4], in test [5] and in [6] was “below the threshold” throughout. Further, the negative-log Kd (pKd) in test [7] was 4.01; in test [8] it was “below the threshold”; in [9], “below the threshold”; in [10], “below the threshold”; in test [11], “below the threshold”; in test [12], “below the threshold”. Also, the negative logarithm of the Kd (pKd) in test [13] was 3.92; in [14] it was “below the threshold”; in test [15] it was “below the threshold”; in test [16], 4.29; in test [17], “below the threshold”; in test [18] it was “below the threshold”. Further, the pKd entry is “below the threshold” in test [19]; 3.96 in test [20]; “below the threshold” in test [21]; “below the threshold” in test [22]; 4.23 in [23].

B4: GRK6, P43250 (peptide)
chain: DSEEELPTRL
Regarding B4, the pKd result in [1], in test [2], in [3], in test [4], in test [5] and in [6] was “below the threshold” each time. For the same molecule, the pKd is 4.25 in test [7]; “below the threshold” in test [8]; 3.53 in test [9]; “below the threshold” in test [10]; 4.16 in test [11]; “below the threshold” in [12]. Besides, the negative-log Kd (pKd) entry in test [13] is “below the threshold”; in test [14], “below the threshold”; in test [15], “below the threshold”; in test [16], 3.85; in [17], “below the threshold”; in test [18], 3.78. In addition, the negative-log Kd (pKd) in [19] was 3.71; in [20], “below the threshold”; in [21] it was “below the threshold”; in [22], “below the threshold”; in [23], 3.66.

B5: GRM5, P41594 (peptide)
chain: RDYTQSSSSL
On to B5, for which the pKd entry in test [1] was “below the threshold”; in test [2], 4.12; in test [3], “below the threshold”; in test [4], “below the threshold”; in test [5], “below the threshold”; in test [6], “below the threshold”. Moreover, the pKd was 4.11 in test [7]; “below the threshold” in test [8]; “below the threshold” in [9]; “below the threshold” in test [10]; 4.33 in test [11]; “below the threshold” in test [12]. The pKd was 3.8 in [13]; “below the threshold” in test [14]; “below the threshold” in [15]; 4.25 in test [16]; 3.53 in [17]; 3.79 in test [18]. Also, the pKd was 3.83 in [19]; 3.52 in [20]; “below the threshold” in test [21]; “below the threshold” in [22]; 3.96 in test [23].
